This note sets out measurements from patent US20200315149.

One data set deals with cathepsin K-cleaved FXII (UniProt P00748).
Data set [1] addresses full-length coagulation factor XII purified from human plasma (UniProt P00748).
Data set [2] addresses recombinant human pro-HGF (UniProt P14210).

Sequence of plasma kallikrein (chain, as listed by the source): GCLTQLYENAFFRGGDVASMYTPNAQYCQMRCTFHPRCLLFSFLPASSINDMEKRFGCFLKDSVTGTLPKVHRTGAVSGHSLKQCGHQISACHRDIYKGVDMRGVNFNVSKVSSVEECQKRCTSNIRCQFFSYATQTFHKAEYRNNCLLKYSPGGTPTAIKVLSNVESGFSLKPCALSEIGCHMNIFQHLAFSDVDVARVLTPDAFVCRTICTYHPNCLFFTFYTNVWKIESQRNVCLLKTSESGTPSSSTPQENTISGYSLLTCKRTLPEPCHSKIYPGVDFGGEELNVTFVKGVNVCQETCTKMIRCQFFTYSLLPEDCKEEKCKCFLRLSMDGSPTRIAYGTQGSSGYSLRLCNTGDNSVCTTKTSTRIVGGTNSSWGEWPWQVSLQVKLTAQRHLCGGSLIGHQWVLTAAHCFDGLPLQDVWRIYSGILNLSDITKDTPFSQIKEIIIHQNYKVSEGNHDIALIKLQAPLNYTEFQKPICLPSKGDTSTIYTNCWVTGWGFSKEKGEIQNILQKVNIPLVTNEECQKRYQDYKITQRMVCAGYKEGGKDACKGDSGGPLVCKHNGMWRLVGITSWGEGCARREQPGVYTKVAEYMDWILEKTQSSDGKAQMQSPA
Sequence of cathepsin K-cleaved FXII (P00748 20-615): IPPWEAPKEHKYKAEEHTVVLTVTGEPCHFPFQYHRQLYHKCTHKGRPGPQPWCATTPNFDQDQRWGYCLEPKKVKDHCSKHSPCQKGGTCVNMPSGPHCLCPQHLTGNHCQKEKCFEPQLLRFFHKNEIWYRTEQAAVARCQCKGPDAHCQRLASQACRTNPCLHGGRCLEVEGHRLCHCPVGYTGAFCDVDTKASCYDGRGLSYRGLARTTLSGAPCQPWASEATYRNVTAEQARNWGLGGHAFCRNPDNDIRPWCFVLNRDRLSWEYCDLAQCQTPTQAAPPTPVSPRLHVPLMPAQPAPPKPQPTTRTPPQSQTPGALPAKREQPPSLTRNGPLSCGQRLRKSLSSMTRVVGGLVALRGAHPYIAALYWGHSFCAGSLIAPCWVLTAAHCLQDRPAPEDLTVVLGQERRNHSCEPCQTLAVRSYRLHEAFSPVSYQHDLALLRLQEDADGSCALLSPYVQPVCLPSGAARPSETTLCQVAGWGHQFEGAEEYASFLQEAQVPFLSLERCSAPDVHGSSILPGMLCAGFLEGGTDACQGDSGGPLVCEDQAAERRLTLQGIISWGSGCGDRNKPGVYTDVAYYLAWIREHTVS
Sequence of full-length coagulation factor XII purified from human plasma (P00748 20-615): as above
Sequence of recombinant human pro-HGF (P14210 32-728): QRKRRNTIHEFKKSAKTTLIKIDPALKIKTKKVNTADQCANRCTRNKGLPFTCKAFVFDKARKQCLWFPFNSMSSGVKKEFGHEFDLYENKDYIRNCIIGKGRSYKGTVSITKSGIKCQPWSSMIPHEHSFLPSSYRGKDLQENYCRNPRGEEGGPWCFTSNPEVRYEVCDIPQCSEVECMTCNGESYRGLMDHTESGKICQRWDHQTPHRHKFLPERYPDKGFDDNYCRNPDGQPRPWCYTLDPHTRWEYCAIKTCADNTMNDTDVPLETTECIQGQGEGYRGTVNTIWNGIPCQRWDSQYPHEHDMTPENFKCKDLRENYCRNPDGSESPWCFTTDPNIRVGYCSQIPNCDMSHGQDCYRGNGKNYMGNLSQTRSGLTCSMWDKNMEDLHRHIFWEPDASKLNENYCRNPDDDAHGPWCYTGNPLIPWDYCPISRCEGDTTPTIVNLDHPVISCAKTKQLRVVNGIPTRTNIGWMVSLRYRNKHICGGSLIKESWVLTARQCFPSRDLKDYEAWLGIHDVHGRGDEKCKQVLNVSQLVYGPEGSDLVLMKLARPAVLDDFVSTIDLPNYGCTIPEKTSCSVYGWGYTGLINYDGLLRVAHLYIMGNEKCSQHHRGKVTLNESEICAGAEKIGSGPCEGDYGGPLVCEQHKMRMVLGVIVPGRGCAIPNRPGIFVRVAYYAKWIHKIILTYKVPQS

plasma kallikrein: the entries for the “FXIIa activity on chromogenic substrate S-2302 after incubation with plasma kallikrein (15 nM, 15 min)” value (with cathepsin K-cleaved FXII; in data set [1]) were “cathepsin K-cleaved FXII had dramatically increased activity compared to full-length FXII when incubated with plasma kallikrein” and “Cathepsin-cleaved FXII incubated with kallikrein (15 nM) had much higher activity than full length FXII incubated with kallikrein”, respectively.

As for thrombin, the “cleavage of pro-HGF, western blot” value in data set [2] is “other serine proteases found in the brain such as thrombin and tissue plasminogen activator did not convert pro-HGF to HGF”.
